This data set deals with T1, EpCAM (UniProt P16422 P16422:24-265).
T1 sequence: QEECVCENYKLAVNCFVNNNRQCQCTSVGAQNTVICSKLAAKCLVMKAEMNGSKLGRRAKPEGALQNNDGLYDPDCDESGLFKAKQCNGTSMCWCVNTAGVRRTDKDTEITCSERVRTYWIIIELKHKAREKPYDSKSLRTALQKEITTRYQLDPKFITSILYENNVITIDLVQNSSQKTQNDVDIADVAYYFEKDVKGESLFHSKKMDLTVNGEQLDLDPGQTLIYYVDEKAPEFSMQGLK
Nature of the data set: stated only; no assay details.

The values below come from patent US20200032265, “Oligonucleotide Probes and Uses Thereof” (CARIS SCIENCE, INC., published 2020).

As for CCCCCCGAATCACATGACTTGGGCGGGGGTCG (ssDNA, 6-T 3' tail as spacer for biotin (shown in figure)) [Aptamer 4], the binding result is listed as “binds”.
